{
  "source": "patent US20220153839A1",
  "about": "(NBE THERAPEUTICS, published 2022)",
  "key": {"[1]": {"target": "T1, human ROR1, full length, on cells (human, UniProt Q01973 30-937)", "T1 sequence (Q01973 30-937)": "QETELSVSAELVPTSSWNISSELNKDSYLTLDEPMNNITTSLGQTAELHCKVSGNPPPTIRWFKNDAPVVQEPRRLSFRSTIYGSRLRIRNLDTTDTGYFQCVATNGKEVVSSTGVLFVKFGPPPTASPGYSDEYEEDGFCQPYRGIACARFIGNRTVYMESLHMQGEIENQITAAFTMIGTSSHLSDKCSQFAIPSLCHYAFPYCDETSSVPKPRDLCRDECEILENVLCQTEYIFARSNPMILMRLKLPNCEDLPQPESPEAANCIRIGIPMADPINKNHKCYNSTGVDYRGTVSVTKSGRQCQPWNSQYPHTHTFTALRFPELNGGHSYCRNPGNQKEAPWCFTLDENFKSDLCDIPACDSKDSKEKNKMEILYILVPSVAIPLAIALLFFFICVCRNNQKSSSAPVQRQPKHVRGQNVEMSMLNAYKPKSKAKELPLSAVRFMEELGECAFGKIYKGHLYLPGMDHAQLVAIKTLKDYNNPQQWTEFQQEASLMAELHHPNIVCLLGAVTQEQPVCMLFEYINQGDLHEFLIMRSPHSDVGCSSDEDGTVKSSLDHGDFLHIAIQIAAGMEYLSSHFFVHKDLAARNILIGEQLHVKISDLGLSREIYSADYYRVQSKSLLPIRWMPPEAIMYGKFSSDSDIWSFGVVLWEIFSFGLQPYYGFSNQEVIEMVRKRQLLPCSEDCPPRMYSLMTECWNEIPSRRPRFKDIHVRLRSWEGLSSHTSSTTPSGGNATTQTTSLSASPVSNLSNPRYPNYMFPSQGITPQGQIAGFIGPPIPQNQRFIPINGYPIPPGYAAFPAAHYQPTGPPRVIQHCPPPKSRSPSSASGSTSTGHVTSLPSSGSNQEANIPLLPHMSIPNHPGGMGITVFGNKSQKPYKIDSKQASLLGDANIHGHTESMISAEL", "test": "cell-based or functional assay"}, "[2]": {"target": "T1, human ROR1, full length, on cells", "test": "cell-based or functional assay", "remark": "listed apart in the source"}, "[3]": {"target": "T1, human ROR1, full length, on cells", "test": "cell-based or functional assay", "remark": "listed apart in the source"}, "[4]": {"target": "T1, human ROR1, full length, on cells", "test": "cell-based or functional assay", "remark": "listed apart in the source"}, "[5]": {"target": "T1, human ROR1, full length, on cells", "test": "cell-based or functional assay", "remark": "listed apart in the source"}, "[6]": {"target": "T1, human ROR1, full length, on cells", "test": "cell-based or functional assay", "remark": "listed apart in the source"}, "[7]": {"target": "T1, human ROR1, full length, on cells", "test": "cell-based or functional assay", "remark": "listed apart in the source"}, "hROR2 [8]": {"target": "T2, hROR2 (human, UniProt Q01974)", "T2 construct": "full length, on the cell surface; also called 63-12 / hROR2; ROR2 on T47D cells", "T2 sequence (Q01974 34-943 limits assumed)": "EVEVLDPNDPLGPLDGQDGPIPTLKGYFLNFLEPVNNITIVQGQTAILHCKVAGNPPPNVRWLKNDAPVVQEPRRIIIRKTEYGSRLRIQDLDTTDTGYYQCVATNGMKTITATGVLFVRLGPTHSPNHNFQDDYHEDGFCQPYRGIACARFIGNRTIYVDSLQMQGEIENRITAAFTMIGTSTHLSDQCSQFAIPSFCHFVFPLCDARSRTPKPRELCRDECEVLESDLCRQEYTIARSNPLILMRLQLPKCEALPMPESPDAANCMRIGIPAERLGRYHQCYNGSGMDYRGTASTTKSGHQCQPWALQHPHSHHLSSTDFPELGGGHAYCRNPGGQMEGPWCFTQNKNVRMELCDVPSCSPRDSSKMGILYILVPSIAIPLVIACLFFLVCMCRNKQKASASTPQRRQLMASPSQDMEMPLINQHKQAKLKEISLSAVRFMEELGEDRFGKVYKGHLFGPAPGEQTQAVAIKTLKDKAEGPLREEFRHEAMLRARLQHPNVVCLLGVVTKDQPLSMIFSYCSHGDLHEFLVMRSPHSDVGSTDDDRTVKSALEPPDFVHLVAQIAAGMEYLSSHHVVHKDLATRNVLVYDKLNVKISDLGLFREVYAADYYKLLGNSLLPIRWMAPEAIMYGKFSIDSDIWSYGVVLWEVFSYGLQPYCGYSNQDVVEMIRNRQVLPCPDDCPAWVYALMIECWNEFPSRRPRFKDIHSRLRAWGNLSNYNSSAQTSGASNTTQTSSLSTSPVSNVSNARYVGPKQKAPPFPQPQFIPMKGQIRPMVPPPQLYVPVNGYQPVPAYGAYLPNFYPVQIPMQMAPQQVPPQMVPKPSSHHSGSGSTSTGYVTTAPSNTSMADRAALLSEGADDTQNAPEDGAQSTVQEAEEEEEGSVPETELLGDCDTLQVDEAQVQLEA", "test": "flow cytometry on 63-12 / hROR2 cells; anti-His Alexa Fluor 488", "experimental": "(§1) Flow cytometry: Cells were stained using standard flow cytometry methodology. Briefly, for purified anti-ROR1 Fab (FIG. 3), 0.1-1×10⁶ cells were stained with 1000 ng/100 μL of Fab on ice for 1 h. After washing twice with ice-cold flow cytometry buffer (PBS containing 1% (v/v) BSA, 0.1% sodium azide and 1 mM EDTA), the cells were incubated with a 1:1000 dilution of a mouse anti-His tag mAb conjugated to Alexa Fluor 488 (Qiagen) in 100 μL flow cytometry buffer on ice for 30 min. For purified anti-ROR1 IgG1 (FIG. 8), 0.1-1×10⁶ cells were blocked by 4% goat serum for 15 min at room temperature and then incubated with 100 ng/100 μL of IgG on ice for 1 h. After washing twice with ice-cold flow cytometry buffer, cells were stained with a 1:500 dilution of goat anti-human IgG, Fcγ pAbs conjugated to APC (Jackson ImmunoResearch) in 100 μL flow cytometry buffer on ice for 30 min. For commercial goat anti human ROR1 polyclonal antibody (FIG. 8), 0.1-1×10⁶ cells were stained with 200 ng/100 μL of Ab on ice for 1 h. […] Finally, 4′,6-diamidino-2-phenylindole (DAPI) was added to a final concentration of 100 ng/mL to exclude dead cells from the analysis. Cells were analyzed using a FACSCalibur instrument (BD Biosciences) and FlowJo analytical software (Tree Star, Ashland, Oreg.)."}, "Ig": {"target": "T3, Ig (human, UniProt Q01973)", "T3 construct": "Ig domain of the extracellular domain; also called hFc-hROR1-Ig", "T3 sequence (Q01973 42-147 limits assumed)": "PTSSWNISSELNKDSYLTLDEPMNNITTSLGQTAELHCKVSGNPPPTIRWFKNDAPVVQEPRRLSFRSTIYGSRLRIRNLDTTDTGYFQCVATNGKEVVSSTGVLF", "test": "ELISA on directly coated hFc fusion proteins of hROR1 domains; anti-His-HRP; A405", "experimental": "(§2) ELISA: For ELISA (FIG. 2), each well of a 96-well Costar 3690 plate (Corning, Corning, N.Y.) was coated with 100 ng anti-human IgG1 Fc in 25 μL coating buffer (0.1 M Na₂CO₃, 0.1 M NaHCO₃, pH 9.6) for 1 h at 37° C. After blocking with 150 μL 3% (w/v) BSA/TBS for 1 h at 37° C., hFc-hROR1 or hFc-mROR1 was captured following incubation at 100 ng/50 μL for 1 h at 37° C. Then 100 ng/50 μL of Fab was applied in each well at 37° C. 2 h later, 50 μL of a 1:1000 dilution of a mouse anti-His tag mAb conjugated to horse radish peroxidase (HRP) (R&D Systems, Minneapolis, Minn.) in 1% (w/v) BSA/TBS was used to detect the Fab. To determine the epitopes (FIG. 4), hFc fusion proteins containing different domains of hROR1 were coated directly, followed by incubation with Fab before detection by mouse anti-His tag mAb conjugated to HRP. Washing with PBS was repeated and colorimetric detection was performed using 2,2′-azino-bis(3-ethylbenzthiazoline)-6-sulfonic acid (Roche) as substrate according to the manufacturer's directions. The absorbance was measured at 405 nm using a SpectraMax M5 microplate reader (Molecular Devices; Sunnyvale, Calif.) and SoftMax Pro software (Molecular Devices)."}, "Fr": {"target": "T4, Fr", "T4 construct": "also called hFc-hROR1-Fr", "T4 sequence (chain, as listed by the source limits assumed)": "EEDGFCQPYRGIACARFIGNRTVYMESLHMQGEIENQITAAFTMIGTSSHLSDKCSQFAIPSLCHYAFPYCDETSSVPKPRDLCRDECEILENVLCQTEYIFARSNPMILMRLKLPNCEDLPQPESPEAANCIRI", "test": "ELISA on directly coated hFc fusion proteins of hROR1 domains; anti-His-HRP; A405", "experimental": "as §2"}, "Kr": {"target": "T5, Kr (human, UniProt Q01973)", "T5 construct": "Kringle domain of the extracellular domain; also called hFc-hROR1-Kr", "T5 sequence (Q01973 312-391 limits assumed)": "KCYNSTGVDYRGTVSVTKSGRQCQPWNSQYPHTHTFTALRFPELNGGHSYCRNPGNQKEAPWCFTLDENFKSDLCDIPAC", "test": "ELISA on directly coated hFc fusion proteins of hROR1 domains; anti-His-HRP; A405", "experimental": "as §2"}, "Fr + Ki": {"target": "T6, Fr + Ki (human, UniProt Q01973)", "T6 construct": "Frizzled and Kringle domains of the extracellular domain; also called hFc-hROR1-Fr-Ki", "T6 sequence (Q01973 165-391 limits assumed)": "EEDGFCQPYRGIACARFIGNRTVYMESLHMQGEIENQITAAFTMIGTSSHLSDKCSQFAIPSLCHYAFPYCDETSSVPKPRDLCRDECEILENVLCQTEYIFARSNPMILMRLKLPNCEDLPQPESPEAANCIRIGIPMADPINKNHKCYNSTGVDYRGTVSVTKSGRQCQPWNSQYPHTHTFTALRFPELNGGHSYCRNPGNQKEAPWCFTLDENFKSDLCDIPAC", "test": "ELISA on directly coated hFc fusion proteins of hROR1 domains; anti-His-HRP; A405", "experimental": "as §2"}, "[9]": {"target": "T7, hFc-mROR1 (extracellular domain of mouse ROR1 fused to the Fc domain of human IgG1) (human; mouse, UniProt Q9Z139 30-406)", "T7 construct": "extracellular domain; not shown: Fc domain of human IgG1", "T7 sequence (Q9Z139 30-406)": "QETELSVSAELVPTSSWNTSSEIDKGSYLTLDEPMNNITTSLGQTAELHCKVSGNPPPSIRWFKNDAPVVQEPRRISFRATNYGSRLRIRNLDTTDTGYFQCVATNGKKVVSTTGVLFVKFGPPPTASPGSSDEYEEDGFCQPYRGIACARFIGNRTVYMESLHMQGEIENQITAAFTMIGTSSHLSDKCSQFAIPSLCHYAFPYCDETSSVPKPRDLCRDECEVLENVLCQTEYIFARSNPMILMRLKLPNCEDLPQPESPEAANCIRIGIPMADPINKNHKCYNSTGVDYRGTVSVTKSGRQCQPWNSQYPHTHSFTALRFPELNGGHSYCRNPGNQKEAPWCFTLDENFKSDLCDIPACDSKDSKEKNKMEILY", "test": "ELISA; hFc fusion captured by coated anti-human IgG1 Fc; Fab 100 ng/50 µL; anti-His-HRP; A405", "experimental": "(§3) The binding of each chimeric rabbit/human Fab to hROR1 and mROR1 fused with human IgG1 Fc (hFc-hROR1 and hFc-mROR1) was analyzed by ELISA. hFc-ROR1 or hFc-mROR1 were captured by anti-human IgG1 Fc antibody immobilized on plate and then incubated with hROR1 specific Fabs comprising a His-tag via detection with mouse anti-His tag.\nas §2, with “Washing with PBS was repeated and colorimetric detection was performed using 2,2′-azino-bis(3-ethylbenzthiazoline)-6-sulfonic acid (Roche) as substrate according to the manufacturer's directions.” left out"}, "[10]": {"target": "T8, hFc-hROR1 (extracellular domain of human ROR1 fused to the Fc domain of human IgG1) (human, UniProt Q01973 30-406)", "T8 construct": "extracellular domain; also called hFc-ROR1; not shown: Fc domain of human IgG1", "T8 sequence (Q01973 30-406)": "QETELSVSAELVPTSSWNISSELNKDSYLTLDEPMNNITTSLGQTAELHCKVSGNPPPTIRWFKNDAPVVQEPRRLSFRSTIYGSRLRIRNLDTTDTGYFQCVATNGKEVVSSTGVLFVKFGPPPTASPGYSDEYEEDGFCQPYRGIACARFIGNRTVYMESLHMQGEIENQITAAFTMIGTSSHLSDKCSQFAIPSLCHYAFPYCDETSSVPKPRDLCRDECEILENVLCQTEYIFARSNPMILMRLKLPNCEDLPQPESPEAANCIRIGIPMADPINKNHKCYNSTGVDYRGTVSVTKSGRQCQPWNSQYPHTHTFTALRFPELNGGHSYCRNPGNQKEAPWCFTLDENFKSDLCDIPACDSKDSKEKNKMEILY", "test": "SPR (Biacore X100); hFc-hROR1 captured by anti-human Fcγ antibody on CM5; Fab as analyte; 1:1 Langmuir fit", "experimental": "(A) Shown are Biacore X100 sensorgrams obtained for the binding of each Fab to hFc-hROR1 captured by anti-human Fcγ antibody immobilized on CM5 chip after instantaneous background depletion. Fabs were injected at five different concentrations with the highest concentration indicated in table (B), one of the five concentrations was tested in duplicates. The equilibrium dissociation constant (Kd) was calculated from koff/kₒₙ (kₒₙ, association rate constant; koff, dissociation rate constant).\nSurface plasmon resonance: Surface plasmon resonance for the measurement of the affinities of all Fabs to hFc-hROR1 and for epitope mapping studies were performed on a Biacore X100 instrument using Biacore reagents and software (GE Healthcare, Piscataway, N.J.). Anti-Human IgG (Fc) antibody was immobilized on a CM5 sensor chip following the instruction of Human Antibody Capture Kit (GE Healthcare, Piscataway, N.J.). The sensor chip included an empty flow cell for instantaneous background depletion. All binding assays used 1×HBS-EP+ running buffer (10 mM HEPES, 150 mM NaCl, 3 mM EDTA (pH 7.4), and 0.05% (v/v) Surfactant P20) and a flow rate of […]. […] The sensor chip was regenerated with […] from the Human Antibody Capture Kit without any loss of binding capacity. Calculation of association (kₒₙ) and dissociation (koff) rate constants was based on a 1:1 Langmuir binding model. The equilibrium dissociation constant (Kd) was calculated from koff/kₒₙ. For epitope mapping studies, each Fab was prepared at 500 nM alone in 1×HBS-EP+ running buffer and then injected in order as indicated in FIG. 5."}, "[11]": {"target": "T9, hFc-hROR2 (extracellular domain of human ROR2 fused to the Fc domain of human IgG1) (human, UniProt Q01974 34-403)", "T9 construct": "extracellular domain; not shown: Fc domain of human IgG1", "T9 sequence (Q01974 34-403)": "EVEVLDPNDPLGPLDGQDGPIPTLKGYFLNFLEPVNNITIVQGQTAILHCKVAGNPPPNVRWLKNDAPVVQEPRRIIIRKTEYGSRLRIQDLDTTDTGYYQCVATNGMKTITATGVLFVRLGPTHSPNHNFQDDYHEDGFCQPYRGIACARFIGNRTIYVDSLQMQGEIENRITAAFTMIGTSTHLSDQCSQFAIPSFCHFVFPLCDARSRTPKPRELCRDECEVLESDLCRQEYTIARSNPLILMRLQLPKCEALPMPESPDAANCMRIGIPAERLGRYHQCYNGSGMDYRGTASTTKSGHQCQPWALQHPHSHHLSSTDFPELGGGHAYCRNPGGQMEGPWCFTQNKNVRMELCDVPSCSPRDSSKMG", "test": "ELISA as for hFc-hROR1; third bar series, keyed 'hFc-hROR1' a second time on the sheet, taken as hFc-hROR2 by legend paragraph 27", "experimental": "as §3, §2"}, "hROR2 [12]": {"target": "T2, hROR2", "test": "flow cytometry on T47D cells (ROR2 positive, ROR1 negative); APC goat anti-human Fcγ", "experimental": "as §1"}, "[13]": {"target": "T1, human ROR1, full length, on cells", "test": "flow cytometry on human cancer cell lines; 2A2 2 µg/mL; anti-human IgG (Fcγ) PE", "experimental": "5×10⁵ of each cell type were added per well to 96-well plates. Plates were centrifuged (3 min, 1300 rpm) with re-suspension in buffer (PBS supplemented with 2% (v/v) of FCS). […] Plates were then incubated on ice for 30 min and washed with 200 μL of buffer prior to resuspension in 200 μL of buffer supplemented with anti-human IgG antibody (Fc gamma-specific) PE (eBioscience 12-4998-82) at a 1:250 dilution. Following 30 min incubation on ice and one washing, cells were analyzed using a FACSCalibur instrument (BD Biosciences) and data was analyzed using FlowJo analytical software (Tree Star, Ashland, Oreg.)."}},
  "data": [
    {"binder": "XBR1-402-G5-PNU antibody drug conjugate (other, Gly5-EDA-PNU joined by sortase to the LPET of the C-terminal G5SLPETG tag of the full light chain; Gly5-EDA-PNU (PNU-159682 derivative) joined by sortase to the LPET of the C-terminal LPETG tag of the full heavy chain) VH: QEQQKESGGGLFKPTDTLTLTCTASGFDISSYYMSWVRQAPGNGLEWIGAIGISGNAYYASWAKSRSTITRNTNLNTVTLKMTSLTAADTATYFCARDHPTYGMDLWGPGTLVTVSS VL: SYELTQLPSVSVSLGQTARITCEGNNIGSKAVHWYQQKPGLAPGLLIYDDDERPSGVPDRFSGSNSGDTATLTISGAQAGDEADYYCQVWDSSAYVFGGGTQLTVTG", "values": [
      {"measurement": "IC50 of in vitro cell killing, hROR1-overexpressing EMT-6 (clone 14)", "setting": "[1]", "value": 0.015, "unit": "µg/mL"},
      {"measurement": "IC50 of in vitro cell killing, hROR1-overexpressing EMT-6", "setting": "[2]", "value": 0.0011, "unit": "µg/mL"},
      {"measurement": "IC50 of in vitro cell killing, 697 cells", "setting": "[3]", "value": 0.0176, "unit": "µg/mL"},
      {"measurement": "IC50 of in vitro cell killing, HS 578T cells (hROR1 status positive)", "setting": "[4]", "value": 1.4, "unit": "µg/mL"},
      {"measurement": "IC50 values on 697 cells (in vitro cell killing)", "setting": "[5]", "value": 0.212, "unit": "µg/mL"},
      {"measurement": "IC50 (cell killing of Kasumi-2 cells, luminescence)", "setting": "[6]", "value": 0.0012, "unit": "µg/mL"},
      {"measurement": "IC50 (cell killing of 697 cells, luminescence)", "setting": "[7]", "value": 0.0757, "unit": "µg/mL"}
    ]},
    {"binder": "ERR1-TOP22 chimeric rabbit/human Fab (Fab, V domains shown, Chimeric rabbit/human Fab with His tag, expressed in E. coli (pET11a); lambda light chain) VH: QSLEESGGRLVTPGTPLTLTCTVSGFSLSSYYMSWVRQAPGKGLEWIGTISSSGSTYYASWVKGRFTISKTSTTVDLKMTSLTTEDTATYFCARDLDYDMDLWGPGTLVTVSS VL: SYELTQLPSVSVSLGQTARITCGGNSIGSKAVHWYQQKPGLAPGLLIYNDDERPSGVPDRFSGSNSGDTATLTISGAQAGDEADYYCQLWDNNAAVFGGGTQLTVTG", "values": [
      {"measurement": "binding result", "setting": "hROR2 [8]", "value": "no binding (tested: 1000 ng/100 µL)"},
      {"measurement": "binding result", "setting": "Ig", "value": "no binding"},
      {"measurement": "binding result", "setting": "Fr", "value": "no binding"},
      {"measurement": "binding result", "setting": "Kr", "value": "no binding"},
      {"measurement": "binding result", "setting": "Fr + Ki", "value": "no binding"},
      {"measurement": "binding result", "setting": "[9]", "value": "binds"},
      {"measurement": "Kd", "setting": "[10]", "value": 110, "unit": "nM"},
      {"measurement": "koff", "setting": "[10]", "value": 0.0813, "unit": "s⁻¹"},
      {"measurement": "kon", "setting": "[10]", "value": 737000, "unit": "M⁻¹ s⁻¹"},
      {"measurement": "binding result", "setting": "[11]", "value": "no binding (tested: 100 ng/50 µL)"}
    ]},
    {"binder": "ERR1-TOP43 chimeric rabbit/human IgG1 (antibody, V domains shown, Rabbit variable domains on human IgG1 constant regions (pCEP4), lambda light chain, from HEK 293F cells) VH: QSLEESGGRLVTPGTPLTLTCTVSGFSLSSYWMSWVRQAPGKGLEWIGAIYGSGNTYYASWAKGRFTISKTSTTVDLKITSPTTEDTATYFCARDVHSTATDLWGPGTLVTISS VL: SYELTQLPSVSVSLGQTARITCGGNNIGSKAVNWYQQKPGLAPGLLIYNDDERPSGVPDRFSGSNSGDTATLTISGAQAGDEADYYCQLWDSSAGAYVFGGGTQLTVTG", "values": [
      {"measurement": "binding result", "setting": "hROR2 [12]", "value": "no binding (tested: 100 ng/100 µL)"}
    ]},
    {"binder": "2A2 (mAb066) IgG (antibody, Known anti-ROR1 antibody (WO 2010/124188), murine-human chimeric IgG1; tags HC: LPETG-Strep, LC: G5SLPETG-Strep; they may be variable domains only) heavy: not shown light: DIVMTQSQKIMSTTVGDRVSITCKASQNVDAAVAWYQQKPGQSPKLLIYSASNRYTGVPDRFTGSGSGTDFTLTISNMQSEDLADYFCQQYDIYPYTFGGGTKLEIKRTVAAPSVFIFPPSDEQLKSGTASVVCLLNNFYPREAKVQWKVDNALQSGNSQESVTEQDSKDSTYSLSSTLTLSKADYEKHKVYACEVTHQGLSSPVTKSFNRGECGGGGSLPETGGWSHPQFEK", "values": [
      {"measurement": "binding result", "setting": "[13]", "value": "binds"}
    ]}
  ]
}
